Test results as given in the DeepSol protein solubility set.

Assay: soluble on expression in E. coli; label from the status in PepcDB or PDB records

Sequence	soluble on expression in E. coli
MFTTYKNINELENAYDEERKQLNDAFNQIDELRHQTRKKCEQMYDHFLYLKHKMNYSEDAMIRMTRIIESFDRETNQRIRHHEMKLEDYKDELRREYLKQSDRIEGDELEHHHHHH	not soluble
KSEKRMKLTLKGGAAVDPDSGLEHSAHVLEKGGKVFSATLGLVDIVKGTNSYYKLQLLEDDKENRYWIFRSWGRVGTVIGSNKLEQMPSKEDAIEHFMKLYEEKTGNAWHSKNFTKYPKKFYPLEI	soluble
MGDPKAFLNIPRQEAGYRPVSERITDYSQVEQTLNTNSRKLQASRCMDCGVPFCHWACPIGNKQPEWQDALFKGKWKEAYEVLSSTCDFPEFTGRICPALCEKSCVLKLSCDQPVTIRENEAAIVEAAFREGYIQVQHPQRNGKKVAVVGAGPAGLVVANQLNLKGYTVTLFDKDEAAGGLLRFGIPNFKLDKNVIDRRMKILAAEGIQFEMGVEIDVNHLPEGFDAYCICTGTPTARDLSIPGRELKGIHFALEMLAQQNRILEGQTFPKDKLVNAKGKKVLVIGGGDTGSDCIGTSVRQGATSVTQIEIMPKPPVGHNPSTPWPQWPVVFKTTSSHEEGCTRRWCLTSNQFLGKNGKVTGVEVEEVEWTPATDGGRPTMNLTGKKEVIEADMVLLAMGFLKPEQPKFAENVFLAGDAATGASLVVRAMAGGRKAAADIDHYLVKLEHHHHHH	soluble
IKDPQTGAPVPLRALINNVSGYVIKTEMYTEVKNAKGEWVFKSLGKPGSMHLRPIATPYPVKEWLQPKRYKAHLMGTTYVYDFPELFRQASSSQWKNFSADVKLTDDFFISNELIEDENGELTEVEREPGANAIGMVAFKITVKTPEYPRGRQFVVVANDITFKIGSFGPQEDEFFNKVTEYARKRGIPRIYLAANSGARIGMAEEIVPLFQVAWNDAANPDKGFQYLYLTSEGMETLKKFDKENSVLTERTVINGEERFVIKTIIGSEDGLGVECLRGSGLIAGATSRAYHDIFTITLVTCRSVGIGAYLVRLGQRAIQVEGQPIILTGAPAINKMLGREVYTSNLQLGGTQIMYNNGVSHLTAVDDLAGVEKIVEWMSYVPAKRNMPVPILETKDTWDRPVDFTPTNDETYDVRWMIEGRETESGFEYGLFDKGSFFETLSGWAKGVVVGRARLGGIPLGVIGVETRTVENLIPADPANPNSAETLIQEPGQVWHPNSAFKTAQAINDFNNGEQLPMMILANWRGFSGGQRDMFNEVLKYGSFIVDALVDYKQPIIIYIPPTGELRGGSWVVVDPTINADQMEMYADVNARAGVLEPQGMVGIKFRREKLLDTMNRLDDKYRELRSQLSNKSLAPEVHQQISKQLADRERELLPIYGQISLQFADLHDRSSRMVAKGVISKELEWTEARRFFFWRLRRRLNEEYLIKRLSHQVGEASRLEKIARIRSWYPASVDHEDDRQVATWIEENYKTLDDKLKGLKLESFAQDLAKKIRSDHDNAIDGLSEVIKMLSTDDKEKLLKTLK	soluble
MGSDKIHHHHHHMIQSYPVERSRTIQTRLVLPPDTNHLGTIFGGKVLAYIDEIAALTAMKHANSAVVTASIDSVDFKSSATVGDALELEGFVTHTGRTSMEVYVRVHSNNLLTGERTLTTESFLTMVAVDESGKPKPVPQVEPQTEEEKRLYETAPARKENRKKRAALR	soluble
MEDGPNEFRAWLAEIGPSWIDVFPREEDPTPEYILFGGRWNSSERDEGRRIIVNVACLLFPEESTSACQREIWTSSQYELGNLETQTTLSLRSSCPDGAKLVGGGCSTEAVGSYRYVQVIQSGFAQDDPDAWLCSWANTSDDEQTQAMAMAYCLHEEPLPAECGCCPTMAETITVKREDEPLRFGPNRLEVSCDEGQTLVLGNCTLDVDDITPFRDVTMFRSGFPPTEEHPDGDRSRWGCSWYNPTGMAPRAIATAVCLPAE	not soluble
MGSDKIHHHHHHMRKKPLTIFSDGTLTRRENTLYFESAKGRKPLAIEGIYDIYIYGHVNITSQALHYIAQKGILIHFFNHYGYYDGTFYPRETLLSGDLIIRQAEHYLNKEKRLFLAKSFVTGGTKNMERNLKNWGIKAKLSDYLDELNDARKITEIMNVEARIRQEYYAKWDENLPEEFKIVKRTRRPPKNEMNALISFLNSRLYATIITEIYNTQLAPTISYLHEPSERRFSLSLDLSEIFKPIIADRVANRLVKKGSLKKEHFREDLNGVLLTEEGMKIVTKAYNEELQKSVKHPKIGSNVTRQRLIRLEAYKLIKHLVGVEEYKPLVAWF	not soluble
MGSDKIHHHHHHMEVDNKRRHSEDELKQEAVKKIKSQEPNYAYLETVVREKLDFDSEKICCITLSPLNVYCCLVCGHYYQGRHEKSPAFIHSIDENHHVFLNLTSLKFYMLPQNVQILHDGEVQLLNSIKFAAYPTYCPKDLEDFPRQCFDLSNRTYLNGFIGFTNAATYDYAHSVLLLISHMVPVRDHFLLNHFDNQGEFIKRLSICVKKIWSPKLFKHHLSVDDFVSYLKVREGLNLNPIDPRLFLLWLFNKICSSSNDLKSILNHSCKGKVKIAKVENKPEASESVTGKVIVKPFWVLTLDLPEFSPFEDGNSVDDLPQINITKLLTKFTKSRSSSTSTVFELTRLPQFLIFHFNRFDRNSDHPVKNRNQTLVEFSSELEILHVKYRLKANVVHVVIKQPSTDGNAFNGDEKSHWITQLYDNKSEKWIEIDGINTTEREAELLFLKETFIQVWEKQE	not soluble
MGGSHHHHHHGMASWPPPRCPLGVPLVLDGCGCCRVCARRLGEPCDQLHVCDASQGLVCQPGAGPGGRGALCLLAEDDSSCEVNGRLYREGETFQPHCSIRCRCEDGGFTCVPLCSEDVRLPSWDCPHPRRVEVLGKCCPEWVCGQGGGLGTQPLPAQGPQFSGLVSSLPPGVPCPEWSTAWGPCSTTCGLGMATRVSNQNRFCRLETQRRLCLSRPCPPSRGRSPQNSAF	not soluble
AIAIRTKQSEAKSKGDTLRQLELAALMTHCNMLITHQQLALQAAMKLAYATKNYLYALAFAKRLLELAPNEEMERTAKKVMQFCERNPNNQNQLDYDIEQSNFAIDAGRLKPCIQPPTKSCVYCGACYDESWHSMTCVVCQVAQD	soluble
TKTTTQGAKSGVFDTVDEAVQAAVIAQNCYKEKSLEERRNVVKAIREALYPEIETIATRAVAETGMGNVTDKILKNTLAIEKTPGVEDLYTEVATGDNGMTLYELSPYGVIGAVAPSTNPTETLICNSIGMLAAGNAVFYSPHPGAKNISLWLIEKLNTIVRDSCGIDNLIVTVAKPSIQAAQEMMNHPKVPLLVITGGPGVVLQAMQSGKKVIGAGAGNPPSIVDETANIEKAAADIVDGASFDHNILCIAE	not soluble
MTIYQHLLILWSSLFASTFAGTAEEVAKHLELGSQFLARAQFADALTQYHAAIELDPKSYQAIYRRATTYLAMGRGKAAIVDLERVLELKPDFYGARIQRGNILLKQGELEAAEADFNIVLNHDSSNNDVQEKTALIEQHRQLRHQIKSAYAGGDCATVEEYINHIIEIQVWDASLYRMRAKCLEERGELKKAIHDMRIVSKLSTDSTDTMFETSKLLYTVGDLEESLNVIRECLKLNPDHKSCYPFYKKLRKVVKSLESMKKKVENSDWMACLEEGQKTMKFDPTPSVQLNVFRITNRCQREAGHISEAIAECNEILNDDPSDADILCERAEAHILDEDYDSAIEDYQKATEVNPDHREAKEGLEHAKRLKTQAGKRDYYKILGVKRNASKREITKAYRKLAQKWHPDNFSDEEEKKKAEKKFIDIAAAKEVLQDEEKRRQFDQGVDPLDPEAQRQGGGHHGGFGHGFPHGFHHFGGGGGGEHSFKFNWG	not soluble
MSEDGGVTTDERACAAPLQLSNTFPRVSRHAVQTGLSPHPRVRNVIAVGSGKGGVGKSTIAVNLAVALQRTGVRVGLLDADIYGPSVPAMLGLSGRPESPDNKLIEPLRAFGIEAMSIGLLIDVDTPMIWRGPMATSALTQLFNDTLWGDLDYLLIDLPPGTGDIQLTLSQKIPVAGAVIVTTPQDIATLDARKALKMFEKVNVPVLGIVENMAMHCCRQCGHVEHLFGEGGAQRMAEHYHVPLLGSLPLDIVIREHGDLGQPITVAAPKGSVGQAYAAVAACLAAELAKRPRAAIPMTTTLGLEHHHHHH	not soluble
MTLIPPVQAIAGTSAAATQALSPVATPNQALVNRFQALMQSSSPLPPAMQRVGNPSMMSRVVDVQNDGVRTIAEHIDAFSMQAPTMGLQEMAAQQIKLMHELTMVGFNLNVSVGVAQSGKNAVQTLVKNQ	not soluble
QEDVTVKSVTLITKVFPEGEKVCAVVIEYPVEIDGQKLSPDQFSVKVKTGDTYSSRTITKVYANNSGGLSFSIFNNRGKYVVLELSTEDLHSNTIVFGPNFLNTRMKLDYIVSQLVPIFDVDGNEVEPFTSKQTDEKHLIIDDFLAFTFKDPETGVEIPYRLFVPKDVNPDRKYPLVVFLHGAGERGTDNYLQVAGNRGAVVWAQPRYQVVHPCFVLAPQCPPNSSWSTLFTDRENPFNPEKPLLAVIKIIRKLLDEYNIDENRIYITGLSMGGYGTWTAIMEFPELFAAAIPICGGGDVSKVERIKDIPIWVFHAEDDPVVPVENSRVLVKKLAEIGGKVRYTEYEKGFMEKHGWDPHGSWIPTYENQEAIEWLFEQSR	soluble
MSLSGDDFSVPSKNSESTLFDSVEGDGAMMEEGVKSRPRQKKTQACLASKHVQEAPRLEPANEEHNVETAEDSEIRYLSADSGDADDSDADLGSAVKQLQEFIPNIKDRATSTIKRMYRDDLERFKEFKAQGVAIKFGKFSVKENKQLEKNVEDFLALTGIESADKLLYTDRYPEEKSVITNLKRRYSFRLHIGRNIARPWKLIYYRAKKMFDVNNYKGRYSEGDTEKLKMYHSLLGNDWKTIGEMVARSSLSVALKFSQISSQRNRGAWSKSETRKLIKAVEEVILKKMSPQELKEVDSKLQENPESCLSIVREKLYKGISWVEVEAKVQTRNWMQCKSKWTEILTKRMTNGRRIYYGMNALRAKVSLIERLYEINVEDTNEIDWEDLASAIGDVPPSYVQTKFSRLKAVYVPFWQKKTFPEIIDYLYETTLPLLKEKLEKMMEKKGTKIQTPAAPKQVFPFRDIFYYEDDSEGHHHHHH	not soluble
MGSDKIHHHHHHMTLLIVGATGTLGRQVARRAIDEGYKVRCLVRSSKKAAFLKEWGAELVPGNLRYPDTLAAALVGVTQVIDASTSRPTDSLSIKQVDWEGKVALIQAAKAAGVERFIFFSILDADKYPEVPLMEIKRCTELFLAESGLNYTILRLAGFMQGLIGQYGIPILEGQPVWVTGNSSPIAYMDTQDIAKFAIRALSVPETENQAFPVVGTRAWSAEEIINLCERLSGKDARVTRMPISLLRAVRGLMRSFQWGWNVADRLAFTEVLASGKQLNASMDEVYTVFGLDPQQTTTLESYLQEYFSRIMKKLKEVDYQKNKNKKQKPKKTPFKQSSKANSQ	not soluble
AYVITEPCIGTKDASCVEVCPVDCIHEGEDQYYIDPDVCIDCGACEAVCPVSAIYHEDFVPEEWKSYIQKNRDFFKK	soluble
MGSDKIHHHHHHMRIVHISDLHFGEELIREKVEKAVRQINEIEPDLLVITGDLSCWGIHSEMRDAYETLLDLKPDYIAVPGNHDARNIGYEFFQLYFGETKKYWKNDVVSLIAADSTQPDLDDGYIGKEQRDWIVSKIRKDRFNILALHHHIAPIPKTGRERNVLIDAGEMVELLIANGISAVLAGHRHMPYSLRLMRTHVIHAGTLGSFKVLGMPDHNYNVIEIKDNTLTLKLRFVDYGEVEIGRYTINPETPESISVYQRIAKPKKVLFLSRSNDCRTKIAEAIFNHISPNNMLAVSAGIEPAQDLDLRAVATMRELGLKINGKPRKFSEDMVSDFDAIVEFDELGVGEFWDVKKPSSAEEYREVRSEIWRRVEELVKRLLA	not soluble
